Assay results: patent publication US8273357B2, “Antigen-carbohydrate conjugates” (Massachusetts Institute of Technology, priority 2004, dated 2012)
“Also recorded” adds a separate entry of the source.

B1: (OVA)-3-1: ovalbumin modified via SMCC with nonasaccharide 3-1, average of three saccharides per OVA (conjugate)
chain: GSIGAASMEFCFDVFKELKVHHANENIFYCPIAIMSALAMVYLGAKDSTRTQINKVVRFDKLPGFGDSIEAQCGTSVNVHSSLRDILNQITKPNDVYSFSLASRLYAEERYPILPEYLQCVKELYRGGLEPINFQTAADQARELINSWVESQTNGIIRNVLQPSSVDSQTAMVLVNAIVFKGLWEKAFKDEDTQAMPFRVTEQESKPVQMMYQIGLFRVASMASEKMKILELPFASGTMSMLVLLPDEVSGLEQLESIINFEKLTEWTSSNVMEERKIKVYLPRMKMEEKYNLTSVLMAMGITDVFSSSANLSGISSAESLKISQAVHAAHAEINEAGREVVGSAEAGVDAASVSEEFRADHPFLFCIKHIATNAVLFFGRCVSP
B2: ovalbumin (protein, UniProt P01012 2-386, looked up)
Ovalbumin: B1 chain
notes: model antigen, unmodified

Experiments:
[1] = test system: IFN-γ; assay: IFN-γ ELISA during in vitro peptide restimulation of T cells from immunized mice; assay type: in vivo, mouse; details: 24 h; lower limit of detection approximately 0.3 ng mL^−1
Procedure: (§1) FIGS. 8A and 8B are a series of dot plots (FIG. 8A) and a graph (FIG. 8B) showing that the oligosaccharide-mediated targeting of steady state dendritic cells leads to T cell tolerance. […] 2×10^7 OTII splenocytes were adoptively transferred into B6.Ly5.2/Cr recipients and then immunized by subcutaneous injection with PBS, OVA (200 ng), (OVA)-3-1 (200 ng), (OVA)-3-1 (200 ng)+mBSA (50 μg) or OVA peptide (100 μg) in Incomplete Freund's Adjuvant. At 8 days after these initial immunizations, mice received an antigenic rechallenge of OVA peptide (100 μg) in Complete Freund's Adjuvant. On day ten mice were sacrificed and cells were isolated from the draining lymph node, total T cells were purified by negative selection and the number of OTII T cells were counted by FACS as described for FIG. 6. […] Purified T cells from each experimental group were seeded at 3×10^5 cells/well with purified […] dendritic cells (9×10^4/well) and were incubated for twenty-four hours±OVA peptide (100 μg mL^−1) with [^3H]thymidine (1 μCi) added for the last ten hours. […]
(§2) 75-150 μL aliquots of supernatant were sampled from antigen presentation assays at 24, 48, and 72 hours. […] 25 μL of each supernatant were diluted 1:1 with PBS/1% BSA and analyzed in triplicate for IFN-γ, IL-10, and IL-4 using DuoSet ELISA reagents from R&D Systems. […]

[2] = test system: CD8α+ and CD8α− dendritic cells; assay: Antigen presentation by sorted CD8α+ and CD8α− dendritic cell subsets to OTII T cells; assay type: cell-based, mouse; details: for presentation to OTII T cells by individual dendritic cell subsets: CD8α+ and CD8α− subsets
Procedure: FIG. 5 is a graph showing that both dendritic cell subsets, i.e., cells that are CD8α+ and CD8α^−, can present (OVA)-301. CD11c+ dendritic cells were stained with antibody against CD8α and I-A^b MHC class H molecules and sorted into their respective CD8α+ and CD8α^− populations. 2×10^4 cells of each subtype were incubated with 1×10^5 purified OTII T cells with graded doses of OVA or (OVA)-3-1 for eighty-four hours with [^3H]thymidine (1 μCi) added for the last twelve hours. All data points were performed in triplicate.
In the mouse, there are three subsets of dendritic cells, which are defined by their expression of the cellular antigens CD8 and CD4, namely CD8 α^+CD4^−, CD8α^−CD4^+, and CD8αCD4^14,15. Many functional differences among these subsets have been described and it has been argued that the CD8α^+ subset may be solely responsible for maintaining peripheral tolerance while the CD8α^− subset induces immunity to captured antigen^14 To determine if the high-mannose receptor was restricted to a particular subset, a fluorescence cell sorter was used to separate dendritic cells into their respective CD8α^+ and CD8α^− subsets. Each subset was then tested for its ability to present OVA and (OVA)-3-1 to OTII T cells (FIG. 5). […] Thus, both dendritic cell subsets expressed a receptor capable of binding nonasaccharide 3-1 and mediating uptake of antigens modified with this oligosaccharide.
To obtain sufficient numbers of dendritic cells for antigen presentation and cytokine analysis, C57BL/6 mice were injected with a Flt3-ligand secreting tumor cell line to promote the expansion of dendritic cells. Fourteen days after this administration the mice were sacrificed and the spleens were isolated. Dendritic cells were purified from the spleens by positive selection with anti-CD11c microbeads as described above and stained with FITC-conjugated anti-1-A^b and cychrome-conjugated anti-CD8α. Cells were then sorted on a fluorescence-activated cell sorter, a MoFlo, (Dakocytomaton, Glostrup Denmark) into CD8α^+I-A^b+ and CD8α^−I-A^b+ populations. The purity of each subset was 80% with approximately 6% cross-contamination. Dendritic cells from each subset were used in antigen proliferation assays as described above (section 3.5.5).

[3] = test system: IL-4; assay: IL-4 ELISA during in vitro peptide restimulation of T cells from immunized mice; assay type: in vivo, mouse; details: 24 h; lower limit of detection approximately 0.3 ng mL^−1
Procedure: as §1, §2

[4] = test system: OTII T cells; assay: In vitro restimulation with OVA peptide of T cells from immunized, rechallenged mice; assay type: in vivo, mouse; details: OVA peptide 100 μg mL^−1, 24 h
Procedure: FIGS. 8A and 8B are a series of dot plots (FIG. 8A) and a graph (FIG. 8B) showing that the oligosaccharide-mediated targeting of steady state dendritic cells leads to T cell tolerance. […] 2×10^7 OTII splenocytes were adoptively transferred into B6.Ly5.2/Cr recipients and then immunized by subcutaneous injection with PBS, OVA (200 ng), (OVA)-3-1 (200 ng), (OVA)-3-1 (200 ng)+mBSA (50 μg) or OVA peptide (100 μg) in Incomplete Freund's Adjuvant. At 8 days after these initial immunizations, mice received an antigenic rechallenge of OVA peptide (100 μg) in Complete Freund's Adjuvant. On day ten mice were sacrificed and cells were isolated from the draining lymph node, total T cells were purified by negative selection and the number of OTII T cells were counted by FACS as described for FIG. 6. […]
For T cell proliferation assays in adoptive transfer experiments, inguinal lymph nodes from each experimental group (3 mice/group) were pooled and dissociated with collagenase/EDTA as described above. […] Response to OVA peptide was determined by subtracting background proliferation (no peptide) from specific, peptide-induced proliferation. […] The proliferation index was calculated as the ratio of the response to OVA peptide in an experimental group to the response to OVA peptide in the PBS group.

Row | Molecule | IFN-γ produced during peptide stimulation in vitro [1] | presentation to OTII T cells by individual dendritic cell subsets [2] | presentation to OTII T cells by individual dendritic cell subsets ([2]; listed as (OVA)-301) | efficiency of presentation by CD8α+ subset relative to CD8α− subset ([2]; sorted subsets, OTII T cells) | IL-4 produced during peptide stimulation in vitro [3] | ability of T cells from immunized mice to respond to dendritic cell-presented OVA peptide in vitro [4]
1 | B1 | no detectable IFN-γ | presented by each subset | can present | approximately 2 fold | not detected | significantly less responsive; also recorded: refractory to antigenic stimulation in vitro
2 | B2 | produced IFN-γ | only weakly presented | – | – | no IL-4 | strongly activated
